Measurements from paper PMC8464984, “AimR Adopts Preexisting Dimer Conformations for Specific Target Recognition in Lysis-Lysogeny Decisions of Bacillus Phage phi3T” (Biomolecules, 2021).

B3: phAimR^C6S/C74S/C99S/C136S/C223S/C267S/D174C, labelled with Alexa488 and Cy5 (natural protein, Bacillus phage phi3T)
chain: MIKNESEKDNQLAARLAKLAGYEKVNGFYKFVNTPEKEMENLGGLLKIVKNLFPDSEEQLLSEYFLELDPNKKSARQSVEYSDINQWDTLTDKIIINLSNSKNSTSQEWGKVYSLHRKLNKNEISLNDAIRESGKSKIKSAEMLFFSNAMLMYAYLNIGEFGLMKSTSKLLEFCDLPEGFIKESFKSRVSMLEANISLNENSLLEARQHSNRAIENSNVNRISFFAYLTIGNTLIFEDYDEAKKAYIKGQKYAKNPVHQEMLDGALSFLSNIWKKENQWVNYNSDNIKYLQLRAFYYINQGNIEEATEILDELSSRDQDENELGFYYYYKGLISQDKTDYYKSIRYFKKSDDKYFIQLPLLQLERMGADLELLNLISI
modifications: Alexa Fluor 488 C5 maleimide or Cy5 maleimide on the cysteine at D174C
notes: AimR of Bacillus phage phi3T (GenBank KY030782.1), six solvent-exposed cysteines changed to serine and D174C added for labelling; One dye per chain; the doubly labelled species is a dimer with Alexa488 on one subunit and Cy5 on the other; also called phAimR (D174C labeling site); D174C dye-labeling; source: E. coli BL21 (DE3), purified in the same way as the wild-type phAimR, dye-conjugated, …
B4: phAimR^C6S/C74S/C99S/C136S/C223S/C267S/N103C, labelled with Alexa488 and Cy5 (natural protein, Bacillus phage phi3T)
chain: MIKNESEKDNQLAARLAKLAGYEKVNGFYKFVNTPEKEMENLGGLLKIVKNLFPDSEEQLLSEYFLELDPNKKSARQSVEYSDINQWDTLTDKIIINLSNSKCSTSQEWGKVYSLHRKLNKNEISLNDAIRESGKSKIKSAEMLFFSNAMLMYAYLNIGEFGLMKSTSKLLEFDDLPEGFIKESFKSRVSMLEANISLNENSLLEARQHSNRAIENSNVNRISFFAYLTIGNTLIFEDYDEAKKAYIKGQKYAKNPVHQEMLDGALSFLSNIWKKENQWVNYNSDNIKYLQLRAFYYINQGNIEEATEILDELSSRDQDENELGFYYYYKGLISQDKTDYYKSIRYFKKSDDKYFIQLPLLQLERMGADLELLNLISI
modifications: Alexa Fluor 488 C5 maleimide or Cy5 maleimide on the cysteine at N103C
notes: AimR of Bacillus phage phi3T (GenBank KY030782.1), six solvent-exposed cysteines changed to serine and N103C added for labelling; One dye per chain; the doubly labelled species is a dimer with Alexa488 on one subunit and Cy5 on the other; also called phAimR (N103C labeling site); N103C dye-labeling; source: E. coli BL21 (DE3), purified in the same way as the wild-type phAimR, dye-conjugated, …

Key:
[1] = biological target: the molecule itself; assay: SAXS; 100 uM protein without peptide; room temperature; 25 mM Tris-HCl pH 8.0, 300 mM NaCl
[2] = biological target: T1, phAimR dimer (D174C-labelled) (Bacillus phage phi3T, UniProt P0DOE3, C136S/C223S/C267S/C6S/C74S/C99S/D174C); assay: smFRET titration of phAimR dimer labelled at D174C (Alexa488/Cy5); assay type: binding; details: no ligand
T1 construct: 6xHis (N, cleaved yes); made in house; host or cells: Escherichia coli BL21 (DE3)
Method: (§1) The cysteine substitutions of phAimR (phAimR^C6S/C74S/C99S/C136S/C223S/C267S/N103C or phAimR^C6S/C74S/ C99S/C136S/C223S/C267S/D174C) were generated with a standard PCR-based strategy. Proteins were prepared in the same way as the wild-type phAimR. Alexa Fluor 488 C5 maleimide (Alexa488, A10254, Thermo Fisher, Shanghai, China) and Cy5 maleimide (Cy5, PA15131, GE Healthcare, Shanghai, China) were used as fluorescence donor and acceptor, respectively. A desalting column (HiPrep 26/10, GE Healthcare, Shanghai, China) was used to exchange the protein buffer into the conjugation buffer containing 20 mM phosphate (pH 7.4) and 100 mM NaCl. The protein fraction was collected in premixed Alexa488 and Cy5 dyes. The conjugation of phAimR was performed with Alexa488 and Cy5 at a molar ratio of 1:4:4. Conjugation reaction was performed for 3 h at room temperature in the dark, and the mixture was then purified using a Source-Q column (GE Healthcare, Shanghai, China). The fractions of double-labeled protein that had absorption at 280 nm, 493 nm and 640 nm were collected for smFRET data collection.
(§2) The laser confocal fluorescence microscope MicroTime 200 (PicoQuant, Berlin, Germany) was used for single-molecule imaging, and a pulsed interleaved excitation (PIE) scheme was used with two SPCM-AQRH detectors (Excelitas, Waltham, MA, USA) for recording fluorescence time traces at two different wavelengths. Two picosecond-pulsed diode laser heads (LDH-P-C-485 and LDH-P-C-640; PicoQuant, Berlin, Germany) were driven by a PDL 828 Sepia II driver (PicoQuant) at a repetition rate of 40 MHz, which allowed interleaved excitations for Alexa488 and Cy5. Each laser was coupled to the inverted microscope IX 73 (Olympus, Beijing, China) through a single-mode fiber, and was reflected by a dichroic mirror through a water-immersion objective (UPLSAPO 60×, N.A. 1.20). The protein sample was loaded onto a hybridization chamber (Thermo Fisher) glued to a glass coverslip (Thermo Fisher, Shanghai, China). The laser confocal point was set to about 50 μm above the coverslip. The excitation power at the back of the objective was about 100 μW for the 485 nm laser and about 35 μW for the 640 nm laser, as estimated with a power meter (PM20-FC; Thorlabs, Shanghai, China). Focused to a 100 μm pinhole, the fluorescence emission from the excited protein molecule was collected with the same objective. The donor and acceptor emissions were separated with a dichroic mirror (T635lpxr; Chroma, Xiamen, China). The donor emission was filtered with a 520/35 BP band pass, and the acceptor emission was filtered with a 690/70 BP band pass, before being focused onto the two SPCM-AQRH detectors.
(§3) The fluorescence outputs were recorded with a TimeHarp 260 PCI board (PicoQuant, Berlin, Germany) built into a PC workstation, and the data were stored in the time-tagged time-resolved module (PicoQuant, Berlin, Germany). The photon counts including fDex/Dem, fDex/Aem and fAex/Aem were obtained by binning the photons in 1 ms bins using SymPhoTime64 software (PicoQuant, Berlin, Germany). […] With all three fluorescence time traces recorded, the signals from the donor-only or acceptor-only protein molecules were filtered out, so as to ensure that an fDex/Aem photon only arises from a doubly labeled protein. […]

[3] = biological target: T2, phAimR dimer (N103C-labelled) (Bacillus phage phi3T, UniProt P0DOE3, C136S/C223S/C267S/C6S/C74S/C99S/N103C); assay: smFRET titration of phAimR dimer labelled at N103C (Alexa488/Cy5); assay type: binding; details: no ligand
T2 construct: 6xHis (N, cleaved yes); made in house; host or cells: Escherichia coli BL21 (DE3)
Method: as §1, §2, §3

[4] = biological target: the molecule itself; assay: FRET or BRET; smFRET in solution, FRET between the two subunits (one dye site per chain), no ligand; about 100 pM doubly labelled phAimR; 25 C, 20 mM Tris-HCl pH 7.5, 100 mM NaCl, 0.005% Tween 20
[5] = biological target: B4; assay: FRET or BRET; smFRET in solution; about 100 pM doubly labelled (Alexa488/Cy5) phAimR, peptide titrated; KD from the population of the enriched FRET state; 25 C, 20 mM Tris-HCl pH 7.5, 100 mM NaCl, 0.005% Tween 20, 1 mM L-ascorbic acid, 1 mM methylviologen; details: both partners purified
[6] = biological target: B3; assay: as above; details: both partners purified

B1: phAimR carrying two amino acids substitutions (phAimR^Y341A/E371A) (natural protein, Bacillus phage phi3T)
chain: MIKNECEKDNQLAARLAKLAGYEKVNGFYKFVNTPEKEMENLGGLLKIVKNLFPDSEEQLLSEYFLELDPNKKCARQSVEYSDINQWDTLTDKIIINLCNSKNSTSQEWGKVYSLHRKLNKNEISLNDAIRESGKCKIKSAEMLFFSNAMLMYAYLNIGEFGLMKSTSKLLEFDDLPEGFIKESFKSRVSMLEANISLNENSLLEARQHSNRAIENSNVNRICFFAYLTIGNTLIFEDYDEAKKAYIKGQKYAKNPVHQEMLDGALCFLSNIWKKENQWVNYNSDNIKYLQLRAFYYINQGNIEEATEILDELSSRDQDENELGFYYYYKGLISQDKTDYAKSIRYFKKSDDKYFIQLPLLQLERMGADLALLNLISI
notes: AimR of Bacillus phage phi3T (GenBank KY030782.1) with Y341A and E371A; also called phAim^Y341A/E371A; phAimR^Y341/E371A; source: E. coli BL21 (DE3), purified, prepared in the same way as the wild-type protein; not shown: His6, N-terminal, cleaved
stoichiometry N [1]: 2

B2: phAimR: AimR from Phi3T phage (GenBank: KY030782.1), transcription factor and arbitrium peptide receptor (protein)
chain: MIKNECEKDNQLAARLAKLAGYEKVNGFYKFVNTPEKEMENLGGLLKIVKNLFPDSEEQLLSEYFLELDPNKKCARQSVEYSDINQWDTLTDKIIINLCNSKNSTSQEWGKVYSLHRKLNKNEISLNDAIRESGKCKIKSAEMLFFSNAMLMYAYLNIGEFGLMKSTSKLLEFDDLPEGFIKESFKSRVSMLEANISLNENSLLEARQHSNRAIENSNVNRICFFAYLTIGNTLIFEDYDEAKKAYIKGQKYAKNPVHQEMLDGALCFLSNIWKKENQWVNYNSDNIKYLQLRAFYYINQGNIEEATEILDELSSRDQDENELGFYYYYKGLISQDKTDYYKSIRYFKKSDDKYFIQLPLLQLERMGADLELLNLISI
modifications: left off: His6, N-terminal, cleaved
notes: AimR from Phi3T phage (GenBank: KY030782.1), transcription factor and arbitrium peptide receptor
FRET efficiency centre of high-FRET species (state 1) [2]: ~63% | FRET efficiency centre of low-FRET species (state 2) [2]: about 35% | population of high-FRET species (state 1) [2]: ~ 61% | population of low-FRET species (state 2) [2]: ~ 39% | FRET efficiency centre of high-FRET species (state 2) [3]: ~62% | FRET efficiency centre of low-FRET species (state 1) [3]: about 30% | population of high-FRET species (Phigh, state 2) [3]: ~ 42% | population of low-FRET species (Plow, state 1) [3]: ~ 58%

B3
stoichiometry N [4]: 2

B4
stoichiometry N [4]: 2

B5: phi3T arbitrium peptide (SAIRGA) (peptide)
peptide: SAIRGA
notes: mature arbitrium peptide processed from the AimP pro-peptide (43 amino acids) of Bacillus phage phi3T; also called SAIRGA peptide; phi3T-derived peptide
Kd [5]: 41.5 ± 5.8 nM | Kd [6]: 22.9 ± 0.5 nM
